Reference: the supplement of paper PMC10567573

B1: KRT18 (parent)
chain: RVRSLETENRRLESKIREHLEKKG
B2: ZNF649 (parent)
chain: YHTGKTPFVCPECGQPCSQKSGLI

Variants of: B1
Assay: protein stability index of a GFP-peptide fusion (GPS, HEK-293T) (PSI 1-6); higher = more stable
Details: c terminus: a fixed tail appended
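Also: lentivirally expressed fusions sorted by FACS into six bins by GFP to DsRed ratio, PSI derived from sequencing read proportions per bin multiplied by bin number.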

Variant	protein stability index
CVRSLETENRRLESKIREHLEKKG	4.66
EVRSLETENRRLESKIREHLEKKG	3.5
DVRSLETENRRLESKIREHLEKKG	4.9

Variants of: B2
Assay: as above
Details: c terminus: a fixed tail appended

Variant	protein stability index
YHTGKTPFVCPECGQPQSQKSGLI	1.96
YHTGKTPFVCPECGQPLSQKSGLI	1.66
YHTGKTPFVCPECGQPPSQKSGLI	2.54
YHTGKTPFVCPECGQPVSQKSGLI	2.26
YHTGKTPFVCPECGQPISQKSGLI	2.01
YHTGKTPFVCPECGQPGSQKSGLI	2.94
YHTGKTPFVCPECGQPKSQKSGLI	3.83
YHTGKTPFVCPECGQPMSQKSGLI	2.14
YHTGKTPFVCPECGQPNSQKSGLI	2.76
YHTGKTPFVCPECGQPESQKSGLI	1.48
YHTGKTPFVCPECGQPHSQKSGLI	1.73
YHTGKTPFVCPECGQPTSQKSGLI	2.04
YHTGKTPFVCPECGQPSSQKSGLI	2.81
YHTGKTPFVCPECGQPDSQKSGLI	2.63
YHTGKTPFVCPECGQPYSQKSGLI	2.35
YHTGKTPFVCPECGQPFSQKSGLI	1.59
YHTGKTPFVCPECGQPASQKSGLI	3.38
YHTGKTPFVCPECGQPCHQKSGLI	1.26
YHTGKTPFVCPECGQPCAQKSGLI	2.31
YHTGKTPFVCPECGQPCDQKSGLI	2.25
YHTGKTPFVCPECGQPCLQKSGLI	1.85
YHTGKTPFVCPECGQPCCQKSGLI	2.08
YHTGKTPFVCPECGQPCWQKSGLI	1.82
YHTGKTPFVCPECGQPCFQKSGLI	2.27

Variant	protein stability index
YHTGKTPFVCPECGQPCNQKSGLI	1.22
YHTGKTPFVCPECGQPCEQKSGLI	3.48
YHTGKTPFVCPECGQPCQQKSGLI	1.49
YHTGKTPFVCPECGQPCPQKSGLI	2.26
YHTGKTPFVCPECGQPCKQKSGLI	1.46
YHTGKTPFVCPECGQPCVQKSGLI	1.44
YHTGKTPFVCPECGQPCYQKSGLI	2.4
YHTGKTPFVCPECGQPCIQKSGLI	2.47
YHTGKTPFVCPECGQPCMQKSGLI	3.02
YHTGKTPFVCPECGQPCGQKSGLI	1.43
YHTGKTPFVCPECGQPCTQKSGLI	2.5
YHTGKTPFVCPECGQPCSQQSGLI	3.76
YHTGKTPFVCPECGQPCSQSSGLI	2.53
YHTGKTPFVCPECGQPCSQESGLI	1.35
YHTGKTPFVCPECGQPCSQASGLI	2.05
YHTGKTPFVCPECGQPCSQNSGLI	1.07
YHTGKTPFVCPECGQPCSQTSGLI	1.8
YHTGKTPFVCPECGQPCSQDSGLI	1.72
YHTGKTPFVCPECGQPCSQYSGLI	3.04
YHTGKTPFVCPECGQPCSQISGLI	3.23
YHTGKTPFVCPECGQPCSQVSGLI	1.43
YHTGKTPFVCPECGQPCSQCSGLI	4.04
YHTGKTPFVCPECGQPCSQHSGLI	2.43
YHTGKTPFVCPECGQPCSQLSGLI	1.37

Variant	protein stability index
YHTGKTPFVCPECGQPCSQPSGLI	2.1
YHTGKTPFVCPECGQPCSQMSGLI	1.53
YHTGKTPFVCPECGQPCSQRSGLI	2.69
YHTGKTPFVCPECGHPCSQKSGLI	2.23
YHTGKTPFVCPECGEPCSQKSGLI	2.65
YHTGKTPFVCPECGTPCSQKSGLI	2.35
YHTGKTPFVCPECGSPCSQKSGLI	2.21
YHTGKTPFVCPECGRPCSQKSGLI	1.63
YHTGKTPFVCPECGCPCSQKSGLI	1.89
YHTGKTPFVCPECGVPCSQKSGLI	1.5
YHTGKTPFVCPECGWPCSQKSGLI	1.83
YHTGKTPFVCPECGIPCSQKSGLI	1.62
YHTGKTPFVCPECGFPCSQKSGLI	3.01
YHTGKTPFVCPECGGPCSQKSGLI	1.45
YHTGKTPFVCPECGYPCSQKSGLI	1.75
YHTGKTPFVCPECGMPCSQKSGLI	2.16
YHTGKTPFVCPECGNPCSQKSGLI	3.41
YHTGKTPFVCPECGKPCSQKSGLI	2.35
YHTGKTPFVCPECGQPCSQKSGLT	2.01
YHTGKTPFVCPECGQPCSQKSGLM	1.84
YHTGKTPFVCPECGQPCSQKSGLQ	2.33
YHTGKTPFVCPECGQPCSQKSGLG	2.94
YHTGKTPFVCPECGQPCSQKSGLV	1.67
YHTGKTPFVCPECGQPCSQKSGLA	1.08

Variant	protein stability index
YHTGKTPFVCPECGQPCSQKSGLF	2.92
YHTGKTPFVCPECGQPCSQKSGLY	1.59
YHTGKTPFVCPECGQPCSQKSGLN	1.99
YHTGKTPFVCPECGQPCSQKSGLP	1.54
YHTGKTPFVCPECGQPCSQKSGLK	1.84
YHTGKTPFVCPECGQPCSQKSGLH	2.42
YHTGKTPFVCPECGQPCSQKSGLE	2.12
YHTGKTPFVCPECGQPCSQKSGLL	1.52
YHTGKTPFVCPECGQPCSQKSGLD	1.36
YHTGKTPFVCPECGQPCSQKSGLC	3.08
YHTGKTPFVCPECGQPCSQKSGLS	1.45
YHTGKTPFVCPECTQPCSQKSGLI	3.65
YHTGKTPFVCPECKQPCSQKSGLI	2.76
YHTGKTPFVCPECVQPCSQKSGLI	2.06
YHTGKTPFVCPECIQPCSQKSGLI	1.79
YHTGKTPFVCPECWQPCSQKSGLI	1.61
YHTGKTPFVCPECRQPCSQKSGLI	3.6
YHTGKTPFVCPECSQPCSQKSGLI	1.72
YHTGKTPFVCPECYQPCSQKSGLI	2.27
YHTGKTPFVCPECQQPCSQKSGLI	2.31
YHTGKTPFVCPECFQPCSQKSGLI	1.94
YHTGKTPFVCPECMQPCSQKSGLI	2.05
YHTGKTPFVCPECEQPCSQKSGLI	1.95
YHTGKTPFVCPECPQPCSQKSGLI	2.54

Variant	protein stability index
YHTGKTPFVCPECGQPCSQKSGMI	1.46
YHTGKTPFVCPECGQPCSQKSGII	2.03
YHTGKTPFVCPECGQPCSQKSGHI	2.05
YHTGKTPFVCPECGQPCSQKSGVI	2.58
YHTGKTPFVCPECGQPCSQKSGWI	1.16
YHTGKTPFVCPECGQPCSQKSGKI	2.56
YHTGKTPFVCPECGQPCSQKSGSI	2.72
YHTGKTPFVCPECGQPCSQKSGNI	3.38
YHTGKTPFVCPECGQPCSQKSGTI	2.2
YHTGKTPFVCPECGQPCSQKSGGI	4.1
YHTGKTPFVCPECGQPCSQKSGRI	1.92
YHTGKTPFVCPECGQPCSQKSGPI	2.15
YHTGKTPFVCPECGQPCSQKSGDI	2.12
YHTGKTPFVCPECGQPCSQKSGQI	3.01
YHTGKTPFVCPECGQPCSQKSGCI	2.83
YHTGKTPFVCPECGQPCSQKSGYI	1.72
YHTGKTPFVCPECGQPCSQKSGEI	1.03
YHTGKTPFVCPECGQPCSQKSGAI	1.59
YHTGKTPFVCPECGQPCSWKSGLI	1.23
YHTGKTPFVCPECGQPCSEKSGLI	1.71
YHTGKTPFVCPECGQPCSAKSGLI	1.58
YHTGKTPFVCPECGQPCSMKSGLI	2.49
YHTGKTPFVCPECGQPCSTKSGLI	2.81
YHTGKTPFVCPECGQPCSNKSGLI	1.59

Variant	protein stability index
YHTGKTPFVCPECGQPCSFKSGLI	2
YHTGKTPFVCPECGQPCSGKSGLI	1.49
YHTGKTPFVCPECGQPCSSKSGLI	2.96
YHTGKTPFVCPECGQPCSCKSGLI	2.69
YHTGKTPFVCPECGQPCSDKSGLI	2.37
YHTGKTPFVCPECGQPCSIKSGLI	1.57
YHTGKTPFVCPECGQPCSPKSGLI	2.04
YHTGKTPFVCPECGQPCSKKSGLI	1.29
YHTGKTPFVCPECGQPCSRKSGLI	2.27
YHTGKTPFVCPECGQPCSHKSGLI	2.2
YHTGKTPFVCPECGQPCSQKGGLI	2.41
YHTGKTPFVCPECGQPCSQKEGLI	1.85
YHTGKTPFVCPECGQPCSQKYGLI	2.56
YHTGKTPFVCPECGQPCSQKVGLI	1.6
YHTGKTPFVCPECGQPCSQKCGLI	2.32
YHTGKTPFVCPECGQPCSQKRGLI	1.92
YHTGKTPFVCPECGQPCSQKFGLI	1.89
YHTGKTPFVCPECGQPCSQKTGLI	1.96
YHTGKTPFVCPECGQPCSQKPGLI	1.9
YHTGKTPFVCPECGQPCSQKQGLI	1.56
YHTGKTPFVCPECGQPCSQKMGLI	2.26
YHTGKTPFVCPECGQPCSQKNGLI	1.93
YHTGKTPFVCPECGQPCSQKIGLI	1.67
YHTGKTPFVCPECGQPCSQKAGLI	1.4

Variant	protein stability index
YHTGKTPFVCPECGQPCSQKKGLI	1.4
YHTGKTPFVCPECGQPCSQKDGLI	1.76
YHTGKTPFVCPECGQPCSQKLGLI	2.15
YHTGKTPFVCPECGQPCSQKHGLI	1.81
YHTGKTPFVCPECGQPCSQKSMLI	1.87
YHTGKTPFVCPECGQPCSQKSVLI	2.92
YHTGKTPFVCPECGQPCSQKSRLI	2.22
YHTGKTPFVCPECGQPCSQKSILI	2.15
YHTGKTPFVCPECGQPCSQKSCLI	2.19
YHTGKTPFVCPECGQPCSQKSHLI	2.72
YHTGKTPFVCPECGQPCSQKSALI	1.81
YHTGKTPFVCPECGQPCSQKSKLI	1.89
YHTGKTPFVCPECGQPCSQKSSLI	2.63
YHTGKTPFVCPECGQPCSQKSQLI	2.2
YHTGKTPFVCPECGQPCSQKSTLI	1.65
YHTGKTPFVCPECGQPCSQKSDLI	1.49
YHTGKTPFVCPECGQPCSQKSLLI	2.97
YHTGKTPFVCPECGQPCSQKSPLI	2.91
YHTGKTPFVCPECGQPCSQKSYLI	3
YHTGKTPFVCPECGQPCSQKSNLI	2.3
YHTGKTPFVCPECGQPCSQKSWLI	1.63
YHTGKTPFVCPECGQPCSQKSFLI	2.34
YHTGKTPFVCPECGQPCSQKSELI	2.32
YHTGKTPFVCPECGQCCSQKSGLI	4.29

Variant	protein stability index
YHTGKTPFVCPECGQECSQKSGLI	2.79
YHTGKTPFVCPECGQLCSQKSGLI	2.82
YHTGKTPFVCPECGQTCSQKSGLI	1.34
YHTGKTPFVCPECGQMCSQKSGLI	1.86
YHTGKTPFVCPECGQGCSQKSGLI	2.99
YHTGKTPFVCPECGQACSQKSGLI	2.79
YHTGKTPFVCPECGQVCSQKSGLI	2.44
YHTGKTPFVCPECGQKCSQKSGLI	1.98
YHTGKTPFVCPECGQSCSQKSGLI	1.9
YHTGKTPFVCPECGQQCSQKSGLI	2.37
YHTGKTPFVCPECGQDCSQKSGLI	1.91
YHTGKTPFVCPECGQRCSQKSGLI	1.54
YHTGKTPFVCPECGQNCSQKSGLI	1.23
YHTGKTPFVCPECGQFCSQKSGLI	2.1
YHTGKTPFVCPECGQICSQKSGLI	1.87
YHTGKTPFVCPECGQYCSQKSGLI	1.04
YHTGKTPFVCPECGQHCSQKSGLI	2.65
